Data published in paper PMC9097488.

Legend:
[1] = biological target: Crenotalea thermophila TIR-APAZ after removal of the 6xHis-MBP tag (Crenotalea thermophila); assay: SEC-MALS
[2] = biological target: MapSPARTA complex (heterodimer of MapAgo and MapTIR-APAZ) (Maribacter polysiphoniae); assay: SEC-MALS

stoichiometry N [1] | stoichiometry N [2] | Substance
1 |  | Crenotalea thermophila short pAgo (natural protein)
 | 4 | MapSPARTA complex (heterodimer of MapAgo and MapTIR-APAZ)
